Two molecules from patent US20260209325A1 (SCHOLAR ROCK, published 2026) can be followed below.

For assay [1], the target named is T1, human pro-myostatin (human, UniProt O14793 24-375, biotinylated (in the SPR assay)). Description: cell-based or functional assay.
Assay [2] addresses recombinant human latent myostatin (human, UniProt O14793 24-375, biotinylated (in the Octet pH assay only)). Description: cell-based or functional assay.
Assay [3] has as its target T1, human pro-myostatin. Description: SPR Biacore 8K, biotin-antigen captured.
The target of assay [4] is T2, murine pro-myostatin (mouse, UniProt O08689 25-376, biotinylated (in the SPR assay)).
T2 construct: also called proGDF8 (mouse); mouse pro-myostatin
Description: SPR Biacore 8K, biotin-antigen captured. Background: Surface plasmon resonance follows binding to a sensor surface in real time, without labels.

Assay [5] has as its target T3, cyno pro-myostatin (cynomolgus monkey, Biotinylated for capture in the SPR assay (site not stated). The native form is a disulfide-linked homodimer, partly furin-cleaved; one chain is given.).
T3 construct: also called proGDF8 (cynomolgus); cynomolgus monkey pro-myostatin
Description: SPR Biacore 8K, biotin-antigen captured.

The target in assay [6] is T1, human pro-myostatin. Kind of assay: plate binding assay, OD 450 nm, antibody titrated 0.0003 to 100 nM, panel 'Hu-Pro-GDF-8 Plate 2' (method not described in the text).
Assay [7] concerns the target T2, murine pro-myostatin. Kind of assay: plate binding assay, OD 450 nm, antibody titrated 0.0003 to 100 nM, panel 'Mu-Pro-GDF-8 Plate 2' (method not described in the text).
In assay [8] the target is T3, cyno pro-myostatin. Description: plate binding assay, OD 450 nm, antibody titrated 0.0003 to 100 nM, panel 'Cyno-Pro-GDF-8 Plate 2' (method not described in the text).
For assay [9], the target named is T3, cyno pro-myostatin. Description: plate binding assay, absorbance at 450 nm, antibody titrated 100 to about 0.002 nM, panel 'Cyno Pure Pro-GDF-8' (method not described in the text).
The target of assay [10] is T1, human pro-myostatin. Kind of assay: plate binding assay, absorbance at 450 nm, antibody titrated 100 to about 0.002 nM, panel 'Human Pure Pro-GDF-8' (method not described in the text).
For assay [11], the target named is T2, murine pro-myostatin. Kind of assay: plate binding assay, absorbance at 450 nm, antibody titrated 100 to about 0.002 nM, panel 'Murine Pure Pro-GDF-8' (method not described in the text).

B1: Ab121 (antibody, human IgG4 S228P, kappa, V domains shown)
VH: QVTLRESGPALVKPTQTLTLTCTVSGFSFSTSGMVVNWIRQPPGKALEWLAMIDWDADNIVYNSALKSRLTISKDTSKNQVVLTMTNMDPVDTATYYCAKDTGSGWFDAFDIWGQGTMVTVSS
VL: DIVMTQSPDSLAVSLGERATINCKSSQSVLYSSTNQNFLAWYQQKPGQPPKLLIYQASTLQNGVPDRFSGSGSGTDFTLTISSLQAEDVAVYYCQQYLTTPYTFGGGTKVEIKR
As a reminder, the Kd is the concentration at which binding is half-saturated. In general, koff refers to the rate constant with which the complex falls apart. The kon is a measure of how fast the partners come together. One may read the EC50 (read off the curve) as the concentration at which the effect is half-maximal. The low end stands for a more potent agent, the high end for a less potent agent. As to B1, in [1], the “IC50 (nM) Pro + Furin” value was determined as 0.143 nM. In addition, the “IC50 (nM) Latent + mTLL2” value in assay [2] is 0.386 nM. Moreover, the Kd in assay [3] was 101 pM; in [4] it was 187 pM; in [5], 106 pM. For the same molecule, the koff was 0.000318 s⁻¹ in assay [3], 0.000608 s⁻¹ in [4] and 0.000365 s⁻¹ in assay [5]. The kon in assay [3] came out at 3.16e+06 M⁻¹ s⁻¹; in assay [4], 3.24e+06 M⁻¹ s⁻¹; in assay [5], 3.45e+06 M⁻¹ s⁻¹. For the same molecule, the concentration for a half-maximal effect (EC50 (read off the curve)) in assay [6], in assay [7] and in assay [8] was about 200 pM throughout.

B2: Ab104 (antibody, human IgG4 S228P, kappa, V domains shown)
VH: EVQLVESGGGLVQPGGSLRLSCAASGSAFSSYGMSWVRQAPGKGLELVASINSNGGSTYYPDSVKGRFTISRDNAKNSLYLQMNSLRAEDTAVYYCARDLLVKFLSWSHYYGMDVWGQGTTVTVSS
VL: DIVMTQSPLSLPVTPGEPASISCRSSQSLLHSSGHNFLHWYLQKPGQSPQLLIYEVSNRVSGVPDRFSGSGSGTDFTLKISRVEAEDVGVYYCMQQTQYPPTFGGGTKVEIKR
As to B2, the “IC50 (nM) Pro + Furin” value in assay [1] came to 0.363 nM. Also, the “IC50 (nM) Latent + mTLL2” value in assay [2] was 0.22 nM. Further, the figures for the Kd in assay [3], in [4] and in assay [5] were 100 pM, 145 pM and 76 pM, respectively. The koff in assay [3] stood at 0.000381 s⁻¹; in assay [4], 0.000518 s⁻¹; in [5] it was 0.000322 s⁻¹. The kon was determined as 3.82e+06 M⁻¹ s⁻¹ in assay [3], 3.58e+06 M⁻¹ s⁻¹ in assay [4] and 4.21e+06 M⁻¹ s⁻¹ in assay [5]. Besides, the “EC50 (read off the curve)” value was about 700 pM in assay [9], about 500 pM in assay [10] and about 600 pM in [11].
